1 molecule from article PMC3618615 (Nature structural & molecular biology, 2013) can be followed below.

In this assay the target is T1, EYA2 Eya domain (EYA2ED) (human, UniProt O00167-1 253-538).
T1 sequence: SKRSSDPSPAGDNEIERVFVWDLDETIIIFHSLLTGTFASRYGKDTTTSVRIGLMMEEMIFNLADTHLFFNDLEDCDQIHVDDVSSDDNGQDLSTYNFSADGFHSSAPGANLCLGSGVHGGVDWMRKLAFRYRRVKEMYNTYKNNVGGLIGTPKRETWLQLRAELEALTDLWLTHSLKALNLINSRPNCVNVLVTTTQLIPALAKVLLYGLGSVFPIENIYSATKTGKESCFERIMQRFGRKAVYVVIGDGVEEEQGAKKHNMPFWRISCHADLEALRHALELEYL
As to the kind of experiment: crystal structure.

B1: MBP-SIX1 (human SIX1 residues 1-189 fused to MBP_B) (domain or fragment, UniProt Q15475 1-189, looked up)
chain: MSMLPSFGFTQEQVACVCEVLQQGGNLERLGRFLWSLPACDHLHKNESVLKAKAVVAFHRGNFRELYKILESHQFSPHNHPKLQQLWLKAHYVEAEKLRGRPLGAVGKYRVRRKFPLPRTIWDGEETSYCFKEKSRGVLREWYAHNPYPSPREKRELAEATGLTTTQVSNWFKNRRQRDRAAEAKEREN
Take B1: the binding result is “binds”.
